The target of the assay is T1, CTLA4 Fc bIgG3aSAP (canine; bovine, UniProt Q9XSI1 36-161, limits assumed).
T1 construct: No linker
T1 sequence: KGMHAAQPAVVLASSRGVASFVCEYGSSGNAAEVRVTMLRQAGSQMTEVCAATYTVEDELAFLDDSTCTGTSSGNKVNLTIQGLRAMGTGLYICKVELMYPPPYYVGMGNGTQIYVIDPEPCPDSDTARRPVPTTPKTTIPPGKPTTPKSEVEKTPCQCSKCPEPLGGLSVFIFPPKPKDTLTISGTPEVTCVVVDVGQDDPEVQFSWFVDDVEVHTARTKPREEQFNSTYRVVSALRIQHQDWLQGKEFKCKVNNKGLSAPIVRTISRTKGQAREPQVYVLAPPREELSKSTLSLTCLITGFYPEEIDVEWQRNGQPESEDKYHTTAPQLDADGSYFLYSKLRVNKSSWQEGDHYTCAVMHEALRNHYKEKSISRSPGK
The experiment in a line: SPR Biacore, biotinylated receptor on SA sensor, pH 7.4, 15 C. Here is the method:
A Biacore SPR binding assay was designed to test the affinity of bovine IgG subclasses to bFcgR1, bFcgR2 and bFcgR3. All reported KD's were measured by Biacore (Cytiva, Marlborough, MA, USA) using series S SA sensor. Biotinylated-bovine FcgR1, R2 and R3 were captured on the sensor surface using a modified SA capture method to reach the desired surface density. 10 mM HEPES, 150 mM NaCl, 3 mM EDTA, 0.05% v/v surfactant P20, pH7.4 buffer was used as the running and titration buffer. Various concentrations of bovine CTLA4-Fc fusions or mAbs were titrated and flowed over the receptor surface and affinities were determined using Biacore T200 Evaluation software (Cytiva, Marlborough, MA, USA) with 1:1 binding model. The method of double referencing has been applied where the reference flow cell was subtracted from the flow cell containing immobilized receptors and blank runs containing buffer only were subtracted out from all runs. Flow cells were regenerated using 10 mM Glycine pH1.5. Runs were performed at 15° C.
Biacore methods for bFcgR1, R2, and R3 were performed as described in Examples above. […] Although the two allotypes have different KDs for bFcgR2 and bFcgR3, both wildtype allotypes do bind. All of the mutations, bIgG3Win, bIgG3WinSAS, bIgG3SAS and bIgG3SAP for both the a and b allotypes knocked down binding to bFcgR1, bFcgR2 and bFcgR3 to negligible affinities. Thus, for knocking out receptor binding, the two allotypes compare similarly.

B1: recombinant bovine FcgR2 (receptor)
chain: KPDLPKAVVTIQPAWINVLREDHVTLTCQGTSFSAGNLTTWFHNGSSIHTQKQPSYSFRAGSNDSGSYRCQREQTSLSDPVHLDVISDWLLLQTPSLVFQEGEPIMLRCHSWRNQPLNKITFYQDRKSKIFSYQRTNFSIPRANLSHSGQYHCTAFIGKMLHSSQPVNITVQESSSSGPSSMTHHHHHHAGLNDIFEAQKIEWHE
modifications: biotin on the BAP tag (BirA)
notes: also called bFcgR2; bFcgRII
For B1, the binding result is “no binding”.

These data come from patent publication US20230416410A1 (ZOETIS SERVICES, published 2023).
